Assay results taken from patent publication US11994512B2, “Single-cell genomic methods to generate ex vivo cell systems that recapitulate in vivo biology with improved fidelity” (Massachusetts Institute of Technology, priority 2018, dated 2024).

B1: Q52KI8 (protein, UniProt Q52KI8 1-946, looked up)
chain: MDAGFFRGTSAEQDNRFSNKQKKLLKQLKFAECLEKKVDMSKVNLEVIKPWITKRVTEILGFEDDVVIEFIFNQLEVKNPDSKMMQINLTGFLNGKNAREFMGELWPLLLSAQENIAGIPSAFLELKKEEIKQRQIEQEKLASLKKQDEDKDKRDKEEKESSREKRERSRSPRRRKSRSPSPRRRSSPVRRERKRSHSRSPRHRTKSRSPSPAPEKKEKSPELPEPSVRMKDSSVQEATSTSDILKAPKPEPVPEPKEPSPEKNSKKEKEKTRPRSRSRSKSRSRTRSRSPSHTRPRRRHRSRSRSYSPRRRPSPRRRPSPRRRTPPRRMPPPPRHRRSRSPGRRRRRSSASLSGSSSSSSSSRSRSPPKKPPKRTSSPPRKTRRLSPSASPPRRRHRPSSPATPPPKTRHSPTPQQSNRTRKSRVSVSPGRTSGKVTKHKGTEKRESPSPAPKPRKVELSESEEDKGSKMAAADSVQQRRQYRRQNQQSSSDSGSSSTSEDERPKRSHVKNGEVGRRRRHSPSRSASPSPRKRQKETSPRMQMGKRWQSPVTKSSRRRRSPSPPPARRRRSPSPAPPPPPPPPPPRRRRSPTPPPRRRTPSPPPRRRSPSPRRYSPPIQRRYSPSPPPKRRTASPPPPPKRRASPSPPPKRRVSHSPPPKQRSPTVTKRRSPSLSSKHRKGSSPGRSTREARSPQPNKRHSPSPRPRAPQTSSPPPVRRGASASPQGRQSPSPSTRPIRRVSRTPEPKKIKKTAMATQRNIRRVSKSPKADSLSRAASPSPQSVRRVSSSRSVSGSPEPAAKKPPAPPSPVQSQSPSTNWSPAVPAKKAKSPTPSLSPARNSDQEGGGKKKKKKKDKKHKKDKKHKKHKKHKKEKAVTIATPATAAPAAVSAATTTSAQEEPAAAPEPRKETESEAEDDNLDDLERHLREKALRSMRKAQVSPQS
modifications: full-length
B2: Q4VAH7 (protein, UniProt Q4VAH7 1-463, looked up)
chain: MGQDAFMELLRSMVGLSLCKIHLLLIAGSCLGLKVTVPSYTVHGIRGQALYLPVHYGFHTPASDIQIIWLFERSHTMPKYLLGSVNKSVVPDLEYQHKFTMMPPNASLLINPLQFTDEGNYIVKVNIQGNGTLSASQKIQVTVDDPVMKPMVQFHPASGAVEYVGNITLTCQVEGGTRLVYQWRKSGKPISINSSHSFSPQNNTLWIVPVTKEDIGNYTCLVSNPVSEMESDIIMPTIYYGPYGLQVNSDKGLKVGEVFTVDLGEAVLFDCSADSYPPNTYSWIQRSDNTTHVIKHGPHLEVASEKVAQKTADYVCCAYNNITGRRDETRFTVIITSVGLEKLAQRGKSLSPLASITGISLFLIISMCLLFLWKKYQPYKAIRQKLEGRPESEYRKAQTFSGHEDALSDFGIYEFVTFPDASGVSRMSSRSSPASDGVTGQDIHGTIYEVIQHIPEQQQENTE
modifications: full-length
B3: Q4V9W2 (protein, UniProt Q4V9W2 1-153, looked up)
chain: MAVPGCNKDNVRAGCRKCGYPGHLTFECRNFLRVDPKRDIVLDVSSTSSEDSDEENEELNKLQALQEKRINEEEEKKKEKSREKIKLKKRRKRSYSSATEEDSAKQKKQKYQKKEKKKEKKNKSKKGKHHKKEKKKRKKEKRSSPYHSELTKK
modifications: full-length
B4: Q3UYK3 (protein, UniProt Q3UYK3 1-1264, looked up)
chain: MWVNPEEVLLANALWITERANPYFILQRRKGHGGDGGGGGGLAGLLVGTLDVVLDSSARVAPYRILYQTPDSLVYWTIACGGSRKEVTEHWEWLEQNLLQTLSIFENENDVTTFVRGKIQGIIAEYNKINDVKEDEDTEKFKEAIVKFHRLFGMPEEEKLVNYYSCSYWKGRVPRQGWMYLSINHLCFSSFLMGREAKLVIRWVDITQLEKNATLLLPDMIKVSTRSSEHFFSVFLNINETFKLMEQLANIAMRQLLDNEGFEQDRSLPKLKKKSPKKVSALKRDLDARAKSERYRALFRLPKDEKLDGHTDCTLWTPFNKMHILGQMFVSTNYICFTSKEENLCSLIIPLREVTIVEKADSCSVLPSPLSISTRNRMTFLFANLKDRDFLVQRISDFLQQTTSRIYSDKEFSGSCNSSDDEVYSRPSSLVSSSPQRSTSSDADGERPFNLNGNSVPTATQTLMTMYRRRSPEEFNPKLAKEFLKEQAWKIHFAEYGQGICMYRTEKTRELVLKGIPESMRGELWLLLSGAINEKATHPGYYEGLVEKSMGKYNLATEEIERDLHRSLPEHPAFQNEMGIAALRRVLTAYAFRNPNIGYCQAMNIVTSVLLLYAKEEEAFWLLVALCERMLPDYYNTRVVGALVDQGVFEELARDYVPQLYDCMQDLGVISTISLSWFLTLFLSVMPFESAVVVVDCFFYEGIKVIFQLALAVLDANVDKLLNCKDDGEAMTVLGRYLDSVTNKDSTLPPIPHLHSLLSDDVGPYPAVDIFRLIGTSYEKFGTIRADLIEQMRFKQRLKVIQTLEDTTKRNVVRTIVTETSFTIDELEELYALFKAEHLTSCYWGGSSNALDRHDPSLPYLEQYRIDFEQFKGMFVLLFPWACGTHSDVLASRLFQLLDENGDSLINFREFVSGLSAACHGDLTEKLKLLYKMHVLPEPSCDQDEPDSAFEATQYFFEDITPECTHVVGLDSRGKQSADDGFVTVSLKQDRGKRANSQENRNYLKLWTAENKSKSKTAKDLPKLNQGQFIELCKTMYNMFSEDPNEQELYHATAAVTSLLLEIGEVGKFFITQPAKEDAVPGPPCGQAIPGMLFPKKGSSQSYVVESTEPLTASLAVDSEEHSLGGQMEDIKLEDSSPRDNGACSSMLISDDDTKDDSSMSSYSVLSAGSHEEDKLHCEDIGEDTVLVRSSQGRATLPRSSSLDRDWAITFEQFLASLLTEPALVRYFDKPVCMMARVTSAKNIRMMGKPLTSASDYEISALSG
modifications: full-length
B5: Q3V3I2 (protein, UniProt Q3V3I2 1-354, looked up)
chain: MGSGISSESKESARRSKELEKKLQEDAERDARTVKLLLLGAGESGKSTIVKQMKIIHKNGYSKQECMEFKAVIYSNTLQSILAIVKAMATLGIDYVNPRSREDQEQLHSMANTLEDGDMTPQLAEIIKRLWGDPGIQACFERASEYQLNDSAAYYLNDLDRLTAPGYVPNEQDVLHSRVKTTGIIETQFSFKDLNFRMFDVGGQRSERKKWIHCFEGVTCIIFCAALSAYDMVLVEDEEVNRMHESLHLFNSICNHKYFATTSIVLFLNKKDLFQEKVAKVHLSICFPEYTGPNTFEDAGNYIKNQFLDLNLKKEDKEIYSHMTCATDTQNVKFVFDAVTDIIIKENLKDCGLF
modifications: full-length
B6: Q3V1V3 (protein, UniProt Q3V1V3 1-845, looked up)
chain: MSSKQEIMDDQRFRRVSKDPRFWEMPEKERKVKIDKRFRAMFHDKKFKLNYAVDKRGRPISHSTTEDLKRFYDLSDSDSDLSDEESKILSQKKAKQKKKQTKKEAKSIEKPIEEKKKETKKTDQKDSINKHDLNNSERVQKMKNSQKPQKIDSEISPKKDNEEFLQNKKKKRGTTDLSVEALPKGKLRTKDSSTSEMVKSSTMSSSKAKREKQSVVPVIMAKDNDGKMPDEDALEEDSDSASELGSDEESEDEIISDGKTSADEDESEEEDEEEEEDSEEEEEEEEEDESDSGPDLARGKGNVETSSEDEDDLADLFPEEPGFEHAWRELDKDAPRADEITRRLAVCNMDWDRLKAKDLLALFNSFKPKGGVVFSVKIYPSEFGKERMKEEQVQGPVELLSIPEDAPEKDWASREKLRDYQFKRLKYYYAVAECDSPETASKIYEDCDGLEFESSCSFIDLRFIPDDITFDDEPKDVALEVDLTAYKPKYFTSAAMGTSTVEITWDETDHERITTLNRKFKKDELLDMDFQAYLASSSEDEEEVEEAPEGEEGVNIGEDGKTKKSQKDDEEQIAKYRQLLQVIQEKEKKGKENDMEMEIKWVPGLKESAEEMVKNKLEGKDKLTPWEQFLEKKKEKKRLKKKQKALAEEDSEDELPSDVDFNDPYFAEEVKKIGIKKKSMKSAKDSASSEEETDLEKQKAEMALLVMDEEEDSKKHFNYDKIVEHQNLSKKKKKQLMKKKELVEDDFEVNVSDARFQAMYTSHLFNLDPSDPNFKKTKAMEKILEEKARHRERKEELLIQAVERAQQDTGKPTQKQPMDPALSMLIKSVKNKTEQFQARKKQRVK
modifications: full-length

Test system: intracellular proteome of ENR+CD and ENR organoids
Test: LC-MS/MS TMT proteomics of ENR+CD versus ENR organoids
Assay type: cell-based, C57BL/6 mice
Details: ENR+CD versus ENR organoids, sample pairs in aggregate (n=4, 2 technical replicates from two biological donors)

Q: With B1 as the molecule, how does the “Average logFC” value read?
A: −1.144

Q: With B2 as the molecule, how does the “Average logFC” value read?
A: 1.418

Q: B3 was tested. Which “Average logFC” value did it give?
A: −1.36

Same assay, conditions: protein abundance ratio ENR+CD versus ENR organoids, sample pair M1-1; LC-MS/MS TMT proteomics

Q: For B1, which “M1-1 Log2 Median Normalized” value is on record?
A: −1.036

Q: Which “M1-1 Log2 Median Normalized” value does the source give for B2 here?
A: 1.047

Q: Which “M1-1 Log2 Median Normalized” value does the source give for B3 here?
A: −1.902

Same assay, conditions: protein abundance ratio ENR+CD versus ENR organoids, sample pair M1-2; LC-MS/MS TMT proteomics

Q: How did the “M1-2 Log2 Median Normalized” value turn out when B1 was run?
A: −0.819

Q: How did the “M1-2 Log2 Median Normalized” value turn out when B2 was run?
A: 1.639

Q: How did the “M1-2 Log2 Median Normalized” value turn out when B3 was run?
A: −0.824

Same assay, conditions: protein abundance ratio ENR+CD versus ENR organoids, sample pair M2-1; LC-MS/MS TMT proteomics

Q: With B1 as the molecule, how does the “M2-1 Log2 Median Normalized” value read?
A: −1.2825

Q: How did the “M2-1 Log2 Median Normalized” value turn out when B2 was run?
A: 1.2475

Q: How did the “M2-1 Log2 Median Normalized” value turn out when B3 was run?
A: −1.2515

Same assay, conditions: protein abundance ratio ENR+CD versus ENR organoids, sample pair M2-2; LC-MS/MS TMT proteomics

Q: For B1, which “M2-2 Log2 Median Normalized” value is on record?
A: −1.437

Q: How did the “M2-2 Log2 Median Normalized” value turn out when B2 was run?
A: 1.739

Q: For B3, which “M2-2 Log2 Median Normalized” value is on record?
A: −1.464

Same assay, conditions: protein abundance, ENR+CD versus ENR organoids; aggregate of the four sample pairs

Q: For B4, which “Average logFC” value is on record?
A: −1.25

Q: Which “Average logFC” value does the source give for B5 here?
A: −1.949

Q: For B6, which “Average logFC” value is on record?
A: −1.244

Same assay, conditions: protein abundance, ENR+CD versus ENR organoids; replicate M1-1; log2 ratio

Q: Which “M1-1 Log2 Median Normalized” value does the source give for B4 here?
A: −0.639

Q: With B5 as the molecule, how does the “M1-1 Log2 Median Normalized” value read?
A: −1.715

Q: B6 was tested. Which “M1-1 Log2 Median Normalized” value did it give?
A: −1.45

Same assay, conditions: protein abundance, ENR+CD versus ENR organoids; replicate M1-2; log2 ratio

Q: With B4 as the molecule, how does the “M1-2 Log2 Median Normalized” value read?
A: −1.148

Q: How did the “M1-2 Log2 Median Normalized” value turn out when B5 was run?
A: −1.092

Q: With B6 as the molecule, how does the “M1-2 Log2 Median Normalized” value read?
A: −0.805

Same assay, conditions: protein abundance, ENR+CD versus ENR organoids; replicate M2-1; log2 ratio

Q: Which “M2-1 Log2 Median Normalized” value does the source give for B4 here?
A: −1.5035

Q: Which “M2-1 Log2 Median Normalized” value does the source give for B5 here?
A: −2.2685

Q: Which “M2-1 Log2 Median Normalized” value does the source give for B6 here?
A: −0.9155

Same assay, conditions: protein abundance, ENR+CD versus ENR organoids; replicate M2-2; log2 ratio

Q: Which “M2-2 Log2 Median Normalized” value does the source give for B4 here?
A: −1.709

Q: Which “M2-2 Log2 Median Normalized” value does the source give for B5 here?
A: −2.719

Q: With B6 as the molecule, how does the “M2-2 Log2 Median Normalized” value read?
A: −1.805

Same assay, conditions: up = enriched in ENR+CD, down = enriched in ENR; FDR<0.05 and log fold change cut-off

Q: B1 was tested. Which change did it give?
A: down

Q: How did the change turn out when B2 was run?
A: up

Q: How did the change turn out when B4 was run?
A: down

Q: For B5, which change is on record?
A: down

Q: B3 was tested. Which change did it give?
A: down

Q: For B6, which change is on record?
A: down
